Measured values reported in patent publication US12460006B2, “Antibodies against integrin alpha 11 beta 1” (Momenta Pharmaceuticals, Inc., priority 2019, dated 2025).

B1: 6-O12: mouse anti-α11β1 mAb; VH SEQ ID NO: 117, VL SEQ ID NO: 118 (antibody, V domains shown)
VH: EVKLEESGGGLVQPGGSMKLSCAASGFTFSDAWMDWVRQSPEAGLEWVAEIRNKAHNPATYYAESVKGRFTISRDDSKSSVYLQMNSLRAEDTGIYYCTLVAPDAMDYWGQGTSVTVSS
VL: DIVMSLSPSSLAVSVGEKVTMSCKSSQSLLYSRNQKNYLAWYQQKPGQSPKLLIYWASTRASGVPDRFTGSGSGTDFTLTISSVKAEDLAVYYCQQYYSYPYTFGGGTKLEIK
B2: 6-B21: mouse anti-α11β1 mAb; VH SEQ ID NO: 123, VL SEQ ID NO: 124 (antibody, V domains shown)
VH: EVQLQQSGPELVKPGASVKISCKASGYTFTDYYMNWVKQSHGKSLEWIGDINPHNGGTSFIQKFKGKATLTVDKSSSTAYMELRSLTSEDSAVYYCAPLGRKEGFAYWGQGTLVTVSA
VL: DTVLTQSPASLVVSLGQRATISCRASKSVSTSGYSYMHWYQQKPGQPPKLLIYLASNLESGVPARFSGSGSGTAFTLNIHPVEEEDAATYYCQHSRELPYTFGGGTKLEIK
B3: 6-A12: mouse anti-α11β1 mAb; VH SEQ ID NO: 127, VL SEQ ID NO: 128 (antibody, V domains shown)
VH: QVTLKESGPGILQPSQTLSLTCSFSGFSLRTFAMGVGWIRQPSGKGLEWLAHIWWDDDKYYNPALKSRLTISKDTSKNQVFLKIANVDTADTATYYCARMPLTFYFDYWGQGTTLTVSS
VL: DVLMTQTPLSLPVSLGDQASISCRSSQSIVHSNGNTYLEWYLQKPGQSPKLLIYKVSTRFSGVPDRFSGSGSGTDFTLKISRVEAEDLGVYYCFQGSHVPFTFGGGTKLEIK
B4: 6-M8: mouse anti-α11β1 mAb; VH SEQ ID NO: 129, VL SEQ ID NO: 130 (antibody, V domains shown)
VH: QVQLQQPGAELVMPGASVKLSCKASGYTFTNYWMHWVKQRPGQGLEWIGEIDPSDSYTNYNQKFKGKATLTVDKSSSTAYMQLSSLTSEDSAVYYCTRQGSTYAWGQGTSVTVSS
VL: DIVMTQAAFSNPVTLGTSASISCRSSKSLLHSNGITYLYWYLQKPGQSPQLLIYQMSNLASGVPDRFSSSGSGTDFTLRISRVEAEDVGVYYCAQNLELPPTFGGGTKLEIK
B5: 9-B11: mouse anti-α11β1 mAb; VH SEQ ID NO: 115, VL SEQ ID NO: 116 (antibody, V domains shown)
VH: QVQLQQPGAELVRPGTSVKLSCKASGYTFTSYWMHWVQQRPGQGLEWIGVIDPSDSYTNYNQKFKGKATLTVDTSSSSAYMQLSSLTSEDSAVYYCARDDVAMDYWGQGTSVTVSS
VL: DIVVTQSPASLAVSLGQRATISCRASESVDSYGNSFIHWYQQKPGQPPKLLIYRASNLKSGIPARFSGSGSRTDFTLTINPVEADDVATYYCQQSNEDPYTFGGGTKLEIK
B6: 7-H14: mouse anti-α11β1 mAb; VH SEQ ID NO: 121, VL SEQ ID NO: 122 (antibody, V domains shown)
VH: QVQLQQPGAELVRPGASVKLSCKPSGYTFTSYWMNWVKQRPGQGLEWIGMIDPSDSETHYNQMFKDKATLTVDKSSNTAYMQLSSLTSEDSAVYYCAQIYYAYDKAYWGQGTLVTVSA
VL: DIVMSQSPSSLAVSVGEKVTMSCKSSQSLLYSSHQKNYLAWYQQKPGQSPKLLIYWASTRESGVPDRFTGSGSGTDFSLTISSVKAEDLAVYYCQEYYSWTFGGGTKLEIK
B7: 7D8B10: rat anti-α11β1 mAb; VH SEQ ID NO: 153, VL SEQ ID NO: 154 (antibody, V domains shown)
VH: MDLRLTYVFIVAILKGVLCEVKLEESGGGLVQPGMSVKLSCATSGFIFSDYWMEWVRQAPGKGLEWVAEIRNKANNYATYYGKSMKGRFTISRDDSKSIVYLQVNSIRSEDTAIYYCAPNFDYWGQGVMVTVSS
VL: MSPVQSLFLLLLWILGTHGDVVLTQTPPTLSATIGQSVSISCRSSQSLLHSTGNTYLNWLLQRPGQPPQLLIYLVSRLESGVPNRFSASGSGTDFTLKISGIEAEDLGVYYCVQSSHTPYTFGTGTKLELK

Columns and labels:
α1β1, α2β1 and/or α10β1 = experiment: Counter-screen for cross-reactivity to other collagen receptors; assay type: binding, human; conditions: cross-reactivity to α1β1, α2β1, α10β1
Protocol: Wistar rats were immunized with recombinant human α11β1 protein. An enzyme-linked immunosorbent assay (ELISA) was used to test an immune response against target human and mouse proteins. Subsequently, cell fusion (by electro fusion) was performed with animals that produced a good immune response. All fused cells were plated in a 96-well plate and supernatants were screened by ELISA against soluble human and mouse α11β1. Positive clones were counter-screened against human α1β1, α2β1 and α10β1. […] Purified antibodies were then generated from the selected clones and heavy chain and light chain variable domain sequences were obtained from each purified antibody.
10 mice from 5 different strains were immunized with an appropriate mixture of human α11β1, mouse α11β1 and tolerance breaking protein. Plasma titers were evaluated by ELISA against a mixture of human and mouse α11β1. Popliteal, inguinal, and iliac lymph nodes were collected. ELISA-positive anti-human/mouse α11β1 hybridomas were expanded and subjected to a secondary screen against human and mouse α11β1, control HIS protein, and a counter-screen was performed against human […], α2β1 and α10β1. Supernatant IgG concentration was sufficient for functional screening. Selected hybridomas satisfying all the criteria were cloned and clonal hybridomas were confirmed by ELISA against human and mouse α11β1 and subsequently scaled-up and IgGs were purified. Heavy and light chain variable regions of selected hybridomas were then sequenced.
α11β1 belongs to a family of collagen receptors and has a relatively high homology to them. Therefore, the novel antibodies of this invention were counter-screened against α1β1, α2β1 and/or α10β1. Table 2 includes results of cross-reactivity to the other receptors.

[1] = system: human pulmonary fibroblasts (HPFs); experiment: FACS antibody binding to human pulmonary fibroblasts; conditions: binding Yes/No
Protocol: Human Pulmonary Fibroblasts (ScienCell) were cultured in complete Fibroblast Growth Medium (ScienCell) until 80% confluent in T-150 flasks. Cells were washed and harvested using Accutase. Cells were seeded into T-150 flasks at 7,500 cells/cm^2 in complete FGF and cultured for 72 hours. Cells were then washed and starved in serum reduced medium for 24 hours. After starvation, cells were treated with TGFβ-1 (R&D Systems) for 72 hours. Cells were harvested using Accutase and seeded in 96-well conical bottom plates. Cells were blocked with Heat Inactived Fetal Bovine Serum (Gibco) for 30 minutes at 4° C. Cells were then incubated with anti-α11 antibodies at the doses described in each figure for 30 minutes at 4° C. A human anti-α11 antibody (Creative BioLabs) was included as a positive control as well as the appropriate IgG isotype negative controls. Cells were washed twice and incubated with PE conjugated secondary antibodies specific to the IgG class of the anti-α11 antibodies being tested for 30 minutes at 4° C. Cells were washed twice and fixed in 1% PFA for 30 minutes. Cells were acquired on a FACS Verse […]. Data were analyzed by gating on single cells and determining the geometric Mean Fluorescence Intensity (gMFI) in the PE channel for each sample.
Binding to a physiologically relevant primary human cell type was also tested. Human pulmonary fibroblasts (HPF) and TGFβ treatment were used to induce a fibroblast-to-myofibroblast transition (FMT), giving rise to myofibroblasts (MF). […] Additionally, HPFs express α11 and α2β1, other collagen binding receptors, which means that HPFs can be to test cross-reactivity of antibodies of interest.

[2] = target: T1, α11β1 expressed on the surface of CHO-K1 cells (Homo sapiens, UniProt Q9UKX5); experiment: FACS antibody binding to CHO-K1 cells expressing human α11; conditions: binding Yes/No
T1 construct: expressed in transfected cells; host or cells: CHO-K1
T1 sequence (Q9UKX5 23-1188): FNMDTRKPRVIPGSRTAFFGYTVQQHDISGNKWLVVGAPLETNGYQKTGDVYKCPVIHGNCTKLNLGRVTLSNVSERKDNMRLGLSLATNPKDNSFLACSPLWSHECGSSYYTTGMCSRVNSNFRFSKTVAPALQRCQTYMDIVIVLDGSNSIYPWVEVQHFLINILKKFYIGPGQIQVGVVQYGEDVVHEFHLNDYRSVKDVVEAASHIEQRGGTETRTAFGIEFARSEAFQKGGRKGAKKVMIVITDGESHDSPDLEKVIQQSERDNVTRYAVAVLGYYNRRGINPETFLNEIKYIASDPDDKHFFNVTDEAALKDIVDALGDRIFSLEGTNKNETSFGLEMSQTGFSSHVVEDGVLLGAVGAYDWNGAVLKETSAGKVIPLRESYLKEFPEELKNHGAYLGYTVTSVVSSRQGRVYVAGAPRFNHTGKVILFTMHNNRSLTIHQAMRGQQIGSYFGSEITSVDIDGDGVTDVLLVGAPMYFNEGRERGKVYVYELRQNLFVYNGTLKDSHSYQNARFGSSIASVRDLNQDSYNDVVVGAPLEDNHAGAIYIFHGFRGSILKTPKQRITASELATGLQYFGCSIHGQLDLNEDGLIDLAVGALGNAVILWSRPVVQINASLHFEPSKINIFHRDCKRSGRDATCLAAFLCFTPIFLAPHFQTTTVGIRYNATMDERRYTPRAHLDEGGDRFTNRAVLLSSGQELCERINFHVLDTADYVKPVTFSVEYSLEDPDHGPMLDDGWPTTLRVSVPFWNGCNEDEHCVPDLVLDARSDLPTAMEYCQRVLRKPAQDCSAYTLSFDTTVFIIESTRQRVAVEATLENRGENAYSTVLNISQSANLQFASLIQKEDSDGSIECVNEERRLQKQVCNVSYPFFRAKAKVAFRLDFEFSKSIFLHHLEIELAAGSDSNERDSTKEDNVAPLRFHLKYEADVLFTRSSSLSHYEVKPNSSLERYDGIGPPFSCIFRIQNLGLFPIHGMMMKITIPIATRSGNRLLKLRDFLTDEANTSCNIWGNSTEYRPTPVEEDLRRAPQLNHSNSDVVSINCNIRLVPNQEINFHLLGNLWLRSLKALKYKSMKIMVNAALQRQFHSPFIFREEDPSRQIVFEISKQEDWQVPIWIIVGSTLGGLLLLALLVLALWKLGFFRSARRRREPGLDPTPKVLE
Protocol: 200,000 cells (wild-type CHO-K1 cells or CHO-K1 cells expressing human α11) were incubated with each antibody at desired concentrations in FACS buffer for 30 min at 4° C. Then, the cells were washed with FACS buffer and incubated with secondary antibody at 1:100 dilution for 30 minutes at 4° C. Cells were then washed and fixed with 1% PFA in PBS for 20 minutes at room temperature; washed again and read on a cytometer in FACS buffer.
Since integrins are large, transmembrane receptors that exist in different conformational shapes, experiments were performed to confirm that the novel antibodies also bound cell-expressed α11β1. A CHO-K1 cell line that endogenously expressed high levels of the β1 subunit was engineered to stably express human α11 (CHO-K1 hu α11).
Binding EC50 was estimated using data from Fluorescence-activated cell sorting (FACS) performed with CHO-K1 hu α11β1 cells.

Row | Molecule | Off Target (α1β1, α2β1 and/or α10β1) | HPF FACS [1] | CHO-K1 FACS [2]
1 | B1 | No | No | No
2 | B2 | No | No | No
3 | B3 | No | No | Yes
4 | B4 | No | No | No
5 | B5 | No | No | Yes
6 | B6 | No | No | Yes
7 | B7 | No | No | Yes
